According to paper PMC8960874 (Nature Communications, 2022):

Target: T1, WT ectodomain of the SARS-CoV-2 spike trimer (SARS-CoV-2, original …, stabilised)
T1 construct: also called S trimer; prefusion spike trimer ectodomain
Assay: cryo-EM structure
Conditions: both partners purified

| Binder | stoichiometry N |
| --- | --- |
| Clone 2 Fab (Fab, V domains shown, also called Fab2; Fab clone 2) VH: EVQLQQSGPELVKPGASVKISCKASGYSFTGYSMNWMKQSPEKSLEWIGEINPSTGGTTDNQKFKAKATLTVDKSSSTAYMQLKSLTSEDSAVYYCARSRGDYWGQGTSVTVSS VL: DIVLTQSPASLAVSLGQRATISCRASESVEYYGTSLMQWYQQKPGQPPKVLIYAASNVESGVPARFSGSGSGTDFSLNIHPVEEDDIAMYFCQQSRKVPWTFGGGTKLEIK | 3 Fab molecules per S trimer |
| Clone 6 Fab (Fab, V domains shown, also called Fab6; Fab clone 6) VH: QVQLQQSAAELARPGASVKMSCKASGYTFTSYTMHWVKQRPGQGLEWIGYINPTSGYTEYNQNFKDKTTLTADKSSSTAYMQLNSLTSEDSAVYYCAREGHRVGPAYWGQGTLVTVSA VL: not shown | 3 Fab molecules per S trimer |
